Experimental data taken from US20220332804A1 (CSL INNOVATION, published 2022).

Experiments:
Experiment in all cases: SPR; KD relative to WT C2;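 note: biacore SPR at 37 °C, anti-C2 mAbs captured on an anti-human IgG chip, alanine or serine C2 surface mutants tested, KD from 1:1 fit compared with wild-type C2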
human C2 M316A = molecular target: T1, human C2 M316A (human, UniProt P06681 21-752)
T1 sequence: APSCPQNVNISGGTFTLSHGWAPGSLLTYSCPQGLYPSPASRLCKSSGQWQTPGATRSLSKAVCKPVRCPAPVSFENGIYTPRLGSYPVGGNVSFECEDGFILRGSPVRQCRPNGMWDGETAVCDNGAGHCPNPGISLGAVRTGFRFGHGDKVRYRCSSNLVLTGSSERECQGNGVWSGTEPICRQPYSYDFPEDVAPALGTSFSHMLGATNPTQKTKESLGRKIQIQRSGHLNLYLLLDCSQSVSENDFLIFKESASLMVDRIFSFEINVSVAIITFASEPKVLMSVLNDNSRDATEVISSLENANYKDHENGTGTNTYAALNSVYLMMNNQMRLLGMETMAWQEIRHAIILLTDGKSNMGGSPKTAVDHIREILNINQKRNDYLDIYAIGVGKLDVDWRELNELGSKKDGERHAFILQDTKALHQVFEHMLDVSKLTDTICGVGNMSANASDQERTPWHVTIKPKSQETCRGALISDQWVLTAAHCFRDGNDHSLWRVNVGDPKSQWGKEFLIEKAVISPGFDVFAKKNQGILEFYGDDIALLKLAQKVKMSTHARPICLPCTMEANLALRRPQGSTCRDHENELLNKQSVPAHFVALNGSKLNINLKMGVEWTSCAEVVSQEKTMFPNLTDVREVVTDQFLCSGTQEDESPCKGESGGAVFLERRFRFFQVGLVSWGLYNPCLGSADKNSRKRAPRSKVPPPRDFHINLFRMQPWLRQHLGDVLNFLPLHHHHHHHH
Method: (§1) Surface plasmon resonance (SPR, Biacore) was used for all binding affinity analyses. In brief, goat anti-human IgG was directly immobilised onto the carboxymethyl dextran surface of CM5 sensorchips to approximately 12,000 RU using standard NHS/EDC chemistry at pH 5. The immobilised antibody surface was pre-conditioned with ten injections of polyclonal human IgG (Privigen 60 s) prepared at 1 μg/mL. Ligands (anti-C2 mAbs) were captured at the beginning of each cycle as described below. An adjacent spot or flow cell in which only Polyclonal IgG was capture was used as a reference surface. The goat anti-human IgG Fc antibody surface was regenerate in 100 mM H3PO4, injected for 45 seconds at the end of each cycle. Experiments were performed at 37° C. and the flow rate of each experiment was kept constant at 30 μL/min.
(§2) Sensogram data was double-referenced against a reference anti-IgG surface (i.e. minus anti-C2 mAb) and blank buffer injections obtained within each experiment. The binding data was fit to 1:1 (kinetic or steady-state) model using local Rmax and null refraction index (RI=0) when appropriate. Buffers and solutions were filtered (0.22 μm) prior to use.
(§3) The C2 mutants were designed to test the importance of surface exposed residues for antibody binding. Residues located at either the N-terminal VWA domain or C-terminal protease domain of C were replaced by either alanine or serine and tested for binding against anti-C2 antibodies.

human C2 N327A = molecular target: T2, human C2 N327A (human, UniProt P06681 21-752)
T2 sequence: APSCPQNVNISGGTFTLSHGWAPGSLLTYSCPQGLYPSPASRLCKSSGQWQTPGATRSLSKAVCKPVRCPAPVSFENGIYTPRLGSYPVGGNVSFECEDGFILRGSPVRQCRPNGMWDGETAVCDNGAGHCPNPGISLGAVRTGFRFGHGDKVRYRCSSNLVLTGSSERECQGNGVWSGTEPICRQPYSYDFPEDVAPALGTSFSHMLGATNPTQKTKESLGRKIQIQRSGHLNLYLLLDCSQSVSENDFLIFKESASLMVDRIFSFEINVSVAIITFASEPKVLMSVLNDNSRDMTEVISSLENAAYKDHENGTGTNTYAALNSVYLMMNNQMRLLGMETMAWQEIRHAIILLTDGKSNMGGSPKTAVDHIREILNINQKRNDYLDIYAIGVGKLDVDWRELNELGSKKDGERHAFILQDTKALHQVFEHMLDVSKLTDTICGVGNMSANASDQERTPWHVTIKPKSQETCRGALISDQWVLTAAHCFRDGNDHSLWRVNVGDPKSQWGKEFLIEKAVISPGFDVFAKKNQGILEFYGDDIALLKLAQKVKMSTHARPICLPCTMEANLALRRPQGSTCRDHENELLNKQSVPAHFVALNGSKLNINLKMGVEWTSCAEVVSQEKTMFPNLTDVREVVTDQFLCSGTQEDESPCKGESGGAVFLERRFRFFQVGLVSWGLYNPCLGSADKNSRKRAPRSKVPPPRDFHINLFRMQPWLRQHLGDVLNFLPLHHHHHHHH
Method: as §1, §2, §3

human C2 V448A = molecular target: T3, human C2 V448A (human, UniProt P06681 21-752)
T3 sequence: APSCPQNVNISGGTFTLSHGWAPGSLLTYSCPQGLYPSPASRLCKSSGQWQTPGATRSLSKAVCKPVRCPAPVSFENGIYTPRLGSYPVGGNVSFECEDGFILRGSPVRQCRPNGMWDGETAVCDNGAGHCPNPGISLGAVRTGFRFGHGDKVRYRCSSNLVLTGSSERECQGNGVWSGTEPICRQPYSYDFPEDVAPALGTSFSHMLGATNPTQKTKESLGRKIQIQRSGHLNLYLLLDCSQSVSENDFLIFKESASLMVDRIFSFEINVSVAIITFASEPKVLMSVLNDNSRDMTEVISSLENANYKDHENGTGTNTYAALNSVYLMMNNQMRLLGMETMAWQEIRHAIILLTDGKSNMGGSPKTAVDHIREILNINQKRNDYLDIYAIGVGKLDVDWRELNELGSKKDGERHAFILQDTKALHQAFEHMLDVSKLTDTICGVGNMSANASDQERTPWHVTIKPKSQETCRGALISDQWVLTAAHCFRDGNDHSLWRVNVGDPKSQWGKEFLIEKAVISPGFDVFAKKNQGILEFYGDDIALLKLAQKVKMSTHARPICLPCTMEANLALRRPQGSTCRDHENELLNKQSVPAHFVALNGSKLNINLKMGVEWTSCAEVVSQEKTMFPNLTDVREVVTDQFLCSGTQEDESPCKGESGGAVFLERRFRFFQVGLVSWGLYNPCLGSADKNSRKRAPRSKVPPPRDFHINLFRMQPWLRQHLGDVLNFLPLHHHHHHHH
Method: as §1, §2, §3

human C2 R493A = molecular target: T4, human C2 R493A (human, UniProt P06681 21-752)
T4 sequence: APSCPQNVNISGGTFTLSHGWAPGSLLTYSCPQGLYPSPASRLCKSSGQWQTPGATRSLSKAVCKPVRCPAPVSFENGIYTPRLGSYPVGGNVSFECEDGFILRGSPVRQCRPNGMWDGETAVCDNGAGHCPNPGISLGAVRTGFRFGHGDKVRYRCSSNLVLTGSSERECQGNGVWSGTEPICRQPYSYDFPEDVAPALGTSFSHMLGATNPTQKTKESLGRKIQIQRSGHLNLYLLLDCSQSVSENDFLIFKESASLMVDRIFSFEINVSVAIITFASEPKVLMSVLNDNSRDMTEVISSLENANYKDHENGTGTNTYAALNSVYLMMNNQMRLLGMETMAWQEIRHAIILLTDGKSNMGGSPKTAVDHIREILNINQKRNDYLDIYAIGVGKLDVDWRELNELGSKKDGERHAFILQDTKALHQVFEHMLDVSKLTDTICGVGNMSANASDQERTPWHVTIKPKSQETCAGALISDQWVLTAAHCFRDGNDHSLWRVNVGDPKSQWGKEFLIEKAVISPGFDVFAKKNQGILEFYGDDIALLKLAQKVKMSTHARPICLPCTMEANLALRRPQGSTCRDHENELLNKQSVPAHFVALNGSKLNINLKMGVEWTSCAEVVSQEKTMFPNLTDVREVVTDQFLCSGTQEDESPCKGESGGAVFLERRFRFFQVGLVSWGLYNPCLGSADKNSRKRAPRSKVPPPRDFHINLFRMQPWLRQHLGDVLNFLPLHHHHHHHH
Method: as §1, §2, §3

Fold diff (human C2 M316A): 1 fold
Fold diff (human C2 N327A): 7 fold
Fold diff (human C2 V448A): 0 fold
Fold diff (human C2 R493A): 1 fold
B1: RF16-214 (antibody, V domains shown)
VH: EVQLLESGGGLVQPGGSLRLSCAASGFTFSWYQMMWVRQAPGKGLEWVSRIYPSGGGTAYADSVKGRFTISRDNSKNTLYLQMNSLRAEDTAVYYCARDAGYGDNWGQGTLVTVSS
VL: QSALTQPPSVSVSPGQTASITCSGDKLGEKYASWYQQKAGQSPVMVIYQDRKRPSGIPERFSGSNSGNTATLTISGTQAMDEADYYCQAWDTRAVVFGGGTKLTVLG
